Measurements from patent US20140227295A1 (Bristol-Myers Squibb, published 2014).

Target: mesothelin (UniProt Q13421 37-598, limits assumed)
Assay: cell-based or functional assay

Sequence of mesothelin (Q13421 other isoform, or with tags, fused parts or gaps limits assumed): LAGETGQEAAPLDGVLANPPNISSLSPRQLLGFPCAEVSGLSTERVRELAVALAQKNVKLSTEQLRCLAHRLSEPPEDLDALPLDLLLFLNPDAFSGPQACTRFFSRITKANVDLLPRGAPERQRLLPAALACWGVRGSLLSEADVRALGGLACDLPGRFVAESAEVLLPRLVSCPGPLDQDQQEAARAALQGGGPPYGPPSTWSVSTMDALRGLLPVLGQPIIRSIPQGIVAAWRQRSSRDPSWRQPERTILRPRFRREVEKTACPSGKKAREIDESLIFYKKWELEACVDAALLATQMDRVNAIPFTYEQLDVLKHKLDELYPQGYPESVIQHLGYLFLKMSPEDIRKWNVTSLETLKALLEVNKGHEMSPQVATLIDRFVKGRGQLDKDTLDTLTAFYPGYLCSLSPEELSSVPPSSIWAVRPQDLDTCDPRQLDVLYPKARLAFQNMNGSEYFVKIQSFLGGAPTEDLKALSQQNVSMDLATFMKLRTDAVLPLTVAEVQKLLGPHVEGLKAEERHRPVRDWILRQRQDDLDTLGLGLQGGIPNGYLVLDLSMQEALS

EC50, inhibition of proliferation of N87 gastric cancer cells (3H thymidine incorporation assay): 0.2 nM
B1: conjugate (II-1), a conjugate of compound (III-1) and the anti-mesothelin antibody 6A4 (antibody, V domains shown)
VH: QVHLVESGGGVVQPGRSLRLSCVASGITFRIYGMHWVRQAPGKGLEWVAVLWYDGSHEYYADSVKGRFTISRDNSKNTLYLQMNSLRAEDTAIYYCARDGDYYDSGSPLDYWGQGTLVTVSS
VL: EIVLTQSPATLSLSPGERATLSCRASQSVSSYLAWYQQKPGQAPRLLIYDASNRATGIPARFSGSGSGTDFTLTISSLEPEDFAVYYCQQRSNWPLTFGGGTKVEIK
modifications: lysine ε-amino groups thiolated with 2-iminothiolane and linked to the maleimide of tubulysin drug-linker compound (III-1); sites and chain not stated
